Test results published in patent US20230340137A1, “METHODS, THERAPIES AND USES FOR TREATING CANCER” (PFIZER INC., priority 2020, published 2023).

Columns and labels:
Test in all cases: BCMAxCD3 mediated cell killing with human T cells, with or without GSI (luciferase viability)
Type in all cases: cell-based
Conditions in all cases: with or without 1 μM GSI, 60 hours
RPMI8226-luc cells = test system: RPMI8226-luc cells
Procedure: (§1) CD3^+ T cells from PBMCs (Stem Cell Technologies) were negatively selected using EasySep Human T cell enrichment kit (Stem Cell Technologies). Multiple myeloma cells expressing luciferase (MM.1S-luc, OPM2-luc, H929-luc, Molp8-luc, RPMI8226-luc) were treated with 1 μM GSI […]. After 24 hours, cells were seeded with 50,000 CD3^+ pan T cells in a clear 96-well V-bottom plate. Cells were further treated with a range of BCMAxCD3 bispecific antibody concentrations with or without 1 μM GSI. 60 hours after treatment, luciferase activity in treated cells was analyzed using NeoLite reagent kit (Perkin Elmer) and acquired on VictorX multimode plate reader (Perkin Elmer). Cell viability was calculated by dividing luciferase activity of treated cells over luciferase activity of untreated control (no BCMAxCD3 bispecific antibody added).

MM.1S-luc cells = test system: MM.1S-luc cells
Procedure: as §1

H929-luc cells = test system: H929-luc cells
Procedure: as §1

Molp8-luc cells = test system: Molp8-luc cells
Procedure: as §1

OPM2-luc cells = test system: OPM2-luc cells
Procedure: as §1

## PF-06863135: heterodimeric humanized full-length bispecific antibody, one BCMA binding arm and one CD3 binding arm, modified human IgG2Δa Fc
RPMI8226-luc cells; BCMA × CD3 0.00064 nM
  RPMI8226 cell viability: 113.2 ± 10.6 % control
RPMI8226-luc cells; BCMA × CD3 0.0032 nM
  RPMI8226 cell viability: 130.5 ± 19.5 % control
RPMI8226-luc cells; BCMA × CD3 0.016 nM
  RPMI8226 cell viability: 113.4 ± 1.3 % control
RPMI8226-luc cells; BCMA × CD3 0.08 nM
  RPMI8226 cell viability: 54.2 ± 16.9 % control
RPMI8226-luc cells; BCMA × CD3 0.4 nM
  RPMI8226 cell viability: 28.7 ± 13.6 % control
RPMI8226-luc cells; BCMA × CD3 2 nM
  RPMI8226 cell viability: 25.7 ± 5.5 % control
RPMI8226-luc cells; BCMA × CD3 10 nM
  RPMI8226 cell viability: 19.9 ± 1.1 % control
RPMI8226-luc cells; BCMA × CD3 50 nM
  RPMI8226 cell viability: 19.4 ± 5^ % control
MM.1S-luc cells; BCMAxCD3 0.00001 nM
  MM.1S cell viability: 80.6 ± 3.9 % control
MM.1S-luc cells; BCMAxCD3 0.00005 nM
  MM.1S cell viability: 79.8 ± 2.9 % control
MM.1S-luc cells; BCMAxCD3 0.00026 nM
  MM.1S cell viability: 78 ± 0.9 % control
MM.1S-luc cells; BCMAxCD3 0.00128 nM
  MM.1S cell viability: 87.7 ± 4.4 % control
MM.1S-luc cells; BCMAxCD3 0.0064 nM
  MM.1S cell viability: 108 ± 4.5 % control
MM.1S-luc cells; BCMAxCD3 0.032 nM
  MM.1S cell viability: 2.5 ± 0.3 % control
MM.1S-luc cells; BCMAxCD3 0.16 nM
  MM.1S cell viability: 1.7 ± 0.8 % control
MM.1S-luc cells; BCMAxCD3 0.8 nM
  MM.1S cell viability: 2.4 ± 0.5 % control
MM.1S-luc cells; BCMAxCD3 4 nM
  MM.1S cell viability: 1.3 ± 0.8 % control
H929-luc cells; BCMAxCD3 0.00001 nM
  H929 cell viability: 80.2 ± 0.3 % control
H929-luc cells; BCMAxCD3 0.00005 nM
  H929 cell viability: 81.1 ± 0.2 % control
H929-luc cells; BCMAxCD3 0.00026 nM
  H929 cell viability: 79 ± 0.8 % control
H929-luc cells; BCMAxCD3 0.00128 nM
  H929 cell viability: 77.8 ± 3.3 % control
H929-luc cells; BCMAxCD3 0.0064 nM
  H929 cell viability: 81.2 ± 3 % control
H929-luc cells; BCMAxCD3 0.032 nM
  H929 cell viability: 98.6 ± 1.2 % control
H929-luc cells; BCMAxCD3 0.16 nM
  H929 cell viability: 23.2 ± 7.2 % control
H929-luc cells; BCMAxCD3 0.8 nM
  H929 cell viability: 11.3 ± 1.5 % control
H929-luc cells; BCMAxCD3 4 nM
  H929 cell viability: 8.6 ± 3 % control
Molp8-luc cells; BCMAxCD3 0.00001 nM
  Molp8 cell viability: 64 ± 11.6 % control
Molp8-luc cells; BCMAxCD3 0.00005 nM
  Molp8 cell viability: 59.1 ± 4.6 % control
Molp8-luc cells; BCMAxCD3 0.00026 nM
  Molp8 cell viability: 58.5 ± 0.6 % control
Molp8-luc cells; BCMAxCD3 0.00128 nM
  Molp8 cell viability: 66.7 ± 0.3 % control
Molp8-luc cells; BCMAxCD3 0.0064 nM
  Molp8 cell viability: 55.2 ± 1.3 % control
Molp8-luc cells; BCMAxCD3 0.032 nM
  Molp8 cell viability: 66.1 ± 4.9 % control
Molp8-luc cells; BCMAxCD3 0.16 nM
  Molp8 cell viability: 8 ± 2 % control
Molp8-luc cells; BCMAxCD3 0.8 nM
  Molp8 cell viability: 6.1 ± 0.7 % control
Molp8-luc cells; BCMAxCD3 4 nM
  Molp8 cell viability: 5.2 ± 0.3 % control
OPM2-luc cells; BCMA × CD3 0.00064 nM
  OPM2 cell viability: 83.8 ± 3.4 % control
OPM2-luc cells; BCMA × CD3 0.0032 nM
  OPM2 cell viability: 84.3 ± 3.1 % control
OPM2-luc cells; BCMA × CD3 0.016 nM
  OPM2 cell viability: 68.4 ± 2.4 % control
OPM2-luc cells; BCMA × CD3 0.08 nM
  OPM2 cell viability: 43.6 ± 6.4 % control
OPM2-luc cells; BCMA × CD3 0.4 nM
  OPM2 cell viability: 3.1 ± 0.8 % control
OPM2-luc cells; BCMA × CD3 2 nM
  OPM2 cell viability: 2.8 ± 0.8 % control
OPM2-luc cells; BCMA × CD3 10 nM
  OPM2 cell viability: 2 ± 0.2 % control
OPM2-luc cells; BCMA × CD3 50 nM
  OPM2 cell viability: 3.3 ± 0.3 % control
